Experimental data: article PMC8268162, “A Master Regulator BrpR Coordinates the Expression of Multiple Loci for Robust Biofilm and Rugose Colony Development in Vibrio vulnificus”

Target: T1, BrpR-His6
T1 chain: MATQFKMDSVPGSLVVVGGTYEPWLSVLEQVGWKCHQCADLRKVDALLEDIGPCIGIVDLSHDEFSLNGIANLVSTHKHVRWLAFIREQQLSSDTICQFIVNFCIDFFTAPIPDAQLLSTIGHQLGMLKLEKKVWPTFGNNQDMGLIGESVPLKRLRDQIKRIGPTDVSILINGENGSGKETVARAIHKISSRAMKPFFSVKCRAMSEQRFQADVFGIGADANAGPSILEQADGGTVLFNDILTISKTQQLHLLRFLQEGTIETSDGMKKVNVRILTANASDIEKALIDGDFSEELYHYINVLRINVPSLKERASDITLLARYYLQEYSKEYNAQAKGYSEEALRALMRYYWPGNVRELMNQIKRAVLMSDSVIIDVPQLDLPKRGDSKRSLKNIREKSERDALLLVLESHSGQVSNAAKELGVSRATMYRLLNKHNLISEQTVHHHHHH
Test: EMSA; 50 uM c-di-GMP; 40 mM Tris-Cl pH 7.9, 100 mM KCl, 10 mM MgCl2, 1 mM DTT, 0.1 mM EDTA, 0.1 ug/ul BSA, 0.1 ug poly(dI-dC) in 20 ul, 25 min at 30 C; EMSA DNA 5 nM, footprinting DNA 40 nM
Conditions: protein: recombinant; tags: C-terminal His6; label: 6-FAM on reverse strand; blunt

B1: BRPBwt (dsDNA)
DNA 1: GTTTGCAATGTCTCATTGGTGCGACGAATGCTTTGGCG
DNA 2: CGCCAAAGCATTCGTCGCACCAATGAGACATTGCAAAC
binding result: binds
